Experimental data from PMC5440646, “T Cell Costimulation by CD6 Is Dependent on Bivalent Binding of a GADS/SLP-76 Complex” (Molecular and Cellular Biology, 2017).
Where no end group is shown, it is not given here. [ ]: non-standard residue; d: D form. The star is where a group is joined. Biotin = O=C1N[C@H]2[C@H](CS[C@H]2CCCCC(=O)*)N1; pY = N[C@@H](Cc1ccc(OP(=O)(O)O)cc1)C(=O)O

B1: CD6 pY629 peptide (biotin-SSGEWpYQNFQP) (peptide)
peptide: Biotin-SSGEW[pY]QNFQP
notes: CD6, human, cytoplasmic region around Y629; also called phosphorylated CD6 Y629 peptide; source: synthetic peptide (Peptide Protein Research Ltd.)
B2: CD28 pYMNM peptide (biotin-LLHSDpYMNMTP) (peptide)
peptide: Biotin-LLHSD[pY]MNMTP
notes: CD28-derived peptide containing the YXN motif; also called phosphorylated CD28-derived peptide; source: synthetic peptide (Peptide Protein Research Ltd.)

Key:
Test in all cases: SPR; biotinylated short peptides immobilised at ~25 response units on streptavidin-coated CM5 chips, BIAcore 3000; SH2 domains injected at 10 μl/min at 37°C; equilibrium binding, 1:1 Langmuir
Conditions in all cases: both partners purified
[1] = target: T1, TSAd SH2 domain, His-tagged (UniProt Q9NP31 95-186)
T1 construct: T cell-specific adaptor protein (TSAd, SH2D2A), SH2 domain; In the popinF vector
T1 sequence (Q9NP31 95-186): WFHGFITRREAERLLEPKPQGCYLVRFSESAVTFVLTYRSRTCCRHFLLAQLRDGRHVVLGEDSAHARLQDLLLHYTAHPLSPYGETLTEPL

[2] = target: T2, GRB2 SH2 domain, His-tagged (UniProt P62993 60-152)
T2 construct: In the popinF vector
T2 sequence (P62993 60-152): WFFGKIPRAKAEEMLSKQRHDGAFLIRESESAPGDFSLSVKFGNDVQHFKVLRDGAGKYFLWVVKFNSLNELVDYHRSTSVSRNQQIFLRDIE

[3] = target: T3, GADS SH2 domain, His-tagged (UniProt O75791 58-149)
T3 construct: GRB2-related adaptor downstream of Shc (GADS), SH2 domain; In the popinF vector, provided by the Oxford Protein Production Facility
T3 sequence (looked up): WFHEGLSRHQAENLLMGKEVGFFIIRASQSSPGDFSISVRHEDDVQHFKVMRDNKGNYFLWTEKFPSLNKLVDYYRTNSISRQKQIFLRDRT

| Binder | Kd [1] [nM] | Kd [2] [nM] | Kd [3] [nM] |
| --- | --- | --- | --- |
| B1 | 26000 to 58000 | 2000 to 4000 | 1000 to 3000 |
| B2 | 74000 | 3000 | 2000 to 3000 |
